The values below come from patent US5821075.

The target of this test is myelin basic protein, 32P-labeled on tyrosine residues.

B1: PTPL1 protein tyrosine phosphatase (enzyme)
chain: MVQPEQAPKVLNVVVDPQGRGAPEIKATTATSVCPSPFKMKPIGLQERRGSNVSLTLDMSSLGNIEPFVSIPTPREKVAMEYLQSASRILDKVQLRDVVASSHLLQSEFMEIPMNFVDPKEIDIPRHGTKNRYKTILPNPLSRVCLRPKNVTDSLSTYINANYIRGYSGKEKAFIATQGPMINTVDDFWQMVWQEDSPVIVMITKLKEKNEKCVLYWPEKRGIYGKVEVLVISVNECDNYTIRNLVLKQGSHTQHVSNYWYTSWPDHKTPDSAQPLLQLMLDVEEDRLASQGPRAVVVHCSAGIGRTGCFIATSIGCQQLKEEGVVDALSIVCQLRMDRGGMVQTSEQYEFVHHALCLYESRLSAETVQ
B1: the dephosphorylation (radioactivity released as inorganic phosphate, percentage of total input) is greater than 30%.
